# In patent publication US20240400675A1 (published 2024):
# Where a chain is given by its changes, count along the chain named.
# T1: human CLDN6 (UniProt P56747 1-220)
# T1 chain: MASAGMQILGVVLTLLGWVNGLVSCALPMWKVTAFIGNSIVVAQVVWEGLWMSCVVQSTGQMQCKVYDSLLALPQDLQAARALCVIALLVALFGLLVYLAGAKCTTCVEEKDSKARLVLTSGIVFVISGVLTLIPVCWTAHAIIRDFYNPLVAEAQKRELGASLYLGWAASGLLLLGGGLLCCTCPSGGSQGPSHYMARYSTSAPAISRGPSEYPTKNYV
# T2: human CLDN9 (UniProt O95484 1-217)
# T2 chain: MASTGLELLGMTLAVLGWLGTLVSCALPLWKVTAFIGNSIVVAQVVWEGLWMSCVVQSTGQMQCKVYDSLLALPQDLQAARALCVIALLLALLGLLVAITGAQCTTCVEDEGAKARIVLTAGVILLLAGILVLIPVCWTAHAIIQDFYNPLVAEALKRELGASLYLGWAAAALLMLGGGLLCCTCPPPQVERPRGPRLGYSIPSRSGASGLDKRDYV
# T3: CLDN6 I143V isotype (UniProt P56747 1-220)
# T3 chain: T1 chain with I143V
# T4: mouse CLDN6 (mouse, UniProt Q9Z262 1-219)
# T4 chain: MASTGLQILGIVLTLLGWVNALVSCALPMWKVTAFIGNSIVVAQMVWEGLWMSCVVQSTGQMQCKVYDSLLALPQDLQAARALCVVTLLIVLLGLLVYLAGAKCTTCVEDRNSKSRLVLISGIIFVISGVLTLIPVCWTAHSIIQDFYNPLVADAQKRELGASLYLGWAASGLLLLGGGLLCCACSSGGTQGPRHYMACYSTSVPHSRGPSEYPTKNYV
# T5: cyno CLDN6
# T5 chain: T1 chain with Q191R
# B1: XENP34218, humanized C6-30 H1L1 bivalent mAb (antibody, V domains shown)
# VH: QVQLVQSGAEVKKPGASVKVSCKTSGYTFTEYTMHWVRQAPGQSLEWMGGIDPNNGNTHYNQKFQGRVTITVDKSASTAYMELSSLRSEDTAVYYCARIYYFGRLYFDFWGAGTLVTVSS
# VL: DIQMTQSPSSLSASVGDRVTITCQASEDIYNRLAWYQQKPGKVPKLLISGATSLETGVPSRFSGSGSGKDYTFTISSLQPEDIATYYCQQYWSSPLTFGGGTKVEIKR
# B2: XENP34220, humanized C6-30 H2L1 bivalent mAb (antibody, V domains shown)
# VH: EVQLVQSGAEVKKPGESLRISCKTSGYTFTEYTMHWVRQMPGKSLEWMGGIDPNNGNTHYNQKFQGHVTISVDKSISTAYLQWSSLKASDTAMYYCARIYYFGRLYFDFWGAGTLVTVSS
# VL: B1 VL
# B3: XENP35090 H1.6_L1 (antibody, V domains shown)
# VH: B1 VH with N55S
# VL: B1 VL
# B4: XENP35888 H1.24_L1 (antibody, V domains shown)
# VH: B1 VH with F102L
# VL: B1 VL
# B5: XENP35865 H2_L1.60 (antibody, V domains shown)
# VH: B2 VH
# VL: B1 VL with Y91L
# B6: XENP36040 H2.90_L1 (antibody, V domains shown)
# VH: B2 VH with G56L
# VL: B1 VL
# B7: XENP35981 H2_L1.189 (antibody, V domains shown)
# VH: B2 VH
# VL: B1 VL with N31L
# B8: XENP35891 H2.12_L1 (antibody, V domains shown)
# VH: B2 VH with T28D
# VL: B1 VL
# B9: XENP35886 H1.22_L1 (antibody, V domains shown)
# VH: B1 VH with Y100L
# VL: B1 VL
# B10: XENP34233 (C6-30_H1L1 x CD3 bsAb in the 2+1 Fab2-scFv-Fc format) (bispecific antibody)
# heavy 1: QVQLVQSGAEVKKPGASVKVSCKTSGYTFTEYTMHWVRQAPGQSLEWMGGIDPNNGNTHYNQKFQGRVTITVDKSASTAYMELSSLRSEDTAVYYCARIYYFGRLYFDFWGAGTLVTVSSASTKGPSVFPLAPSSKSTSGGTAALGCLVKDYFPEPVTVSWNSGALTSGVHTFPAVLQSSGLYSLSSVVTVPSSSLGTQTYICNVNHKPSDTKVDKKVEPKSCDKTHTCPPCPAPPVAGPSVFLFPPKPKDTLMISRTPEVTCVVVDVKHEDPEVKFNWYVDGVEVHNAKTKPREEEYNSTYRVVSVLTVLHQDWLNGKEYKCKVSNKALPAPIEKTISKAKGQPREPQVYTLPPSREEMTKNQVSLTCDVSGFYPSDIAVEWESDGQPENNYKTTPPVLDSDGSFFLYSKLTVDKSRWEQGDVFSCSVMHEALHNHYTQKSLSLSPGK
# heavy 2: QVQLVQSGAEVKKPGASVKVSCKTSGYTFTEYTMHWVRQAPGQSLEWMGGIDPNNGNTHYNQKFQGRVTITVDKSASTAYMELSSLRSEDTAVYYCARIYYFGRLYFDFWGAGTLVTVSSASTKGPSVFPLAPSSKSTSGGTAALGCLVKDYFPEPVTVSWNSGALTSGVHTFPAVLQSSGLYSLSSVVTVPSSSLGTQTYICNVNHKPSNTKVDKKVEPKSCGGGGSGGGGSQAVVTQEPSLTVSPGGTVTLTCGSSTGAVTTSNYANWVQQKPGKSPRGLIGGTNKRAPGVPARFSGSLLGGKAALTISGAQPEDEADYYCALWYSNHWVFGGGTKLTVLGKPGSGKPGSGKPGSGKPGSEVQLVESGGGLVQPGGSLRLSCAASGFTFSTYAMNWVRQAPGKGLEWVGRIRSKYNNYATYYADSVKGRFTISRDDSKNTLYLQMNSLRAEDTAVYYCVRHGNFGDSYVSWFAYWGQGTLVTVSSGGGGSGGGGSKTHTCPPCPAPPVAGPSVFLFPPKPKDTLMISRTPEVTCVVVDVKHEDPEVKFNWYVDGVEVHNAKTKPREEQYNSTYRVVSVLTVLHQDWLNGKEYKCKVSNKALPAPIEKTISKAKGQPREPQVYTLPPSREQMTKNQVKLTCLVKGFYPSDIAVEWESNGQPENNYKTTPPVLDSDGSFFLYSKLTVDKSRWQQGNVFSCSVMHEALHNHYTQKSLSLSPGK
# light: not shown
# B11: XENP34229 (C6-30_H1L1 x CD3 bsAb in the 1+1 Fab-scFv-Fc format) (bispecific antibody)
# heavy: B10 heavy 1
# scFv-Fc: QAVVTQEPSLTVSPGGTVTLTCGSSTGAVTTSNYANWVQQKPGKSPRGLIGGTNKRAPGVPARFSGSLLGGKAALTISGAQPEDEADYYCALWYSNHWVFGGGTKLTVLGKPGSGKPGSGKPGSGKPGSEVQLVESGGGLVQPGGSLRLSCAASGFTFSTYAMNWVRQAPGKGLEWVGRIRSKYNNYATYYADSVKGRFTISRDDSKNTLYLQMNSLRAEDTAVYYCVRHGNFGDSYVSWFAYWGQGTLVTVSSEPKSSDKTHTCPPCPAPPVAGPSVFLFPPKPKDTLMISRTPEVTCVVVDVKHEDPEVKFNWYVDGVEVHNAKTKPREEQYNSTYRVVSVLTVLHQDWLNGKEYKCKVSNKALPAPIEKTISKAKGQPREPQVYTLPPSREQMTKNQVKLTCLVKGFYPSDIAVEWESNGQPENNYKTTPPVLDSDGSFFLYSKLTVDKSRWQQGNVFSCSVMHEALHNHYTQKSLSLSPGK
# light: not shown
# Biological target: T1, human CLDN6
# Experiment: HEK293E cell binding; avid
row,EC50 [µg/mL],Binder
1,0.344,B1
2,0.391,B2
3,0.903,B3
4,0.657,B4
5,0.686,B5
6,0.706,B6
7,0.404,B7
8,0.474,B8
9,0.941,B9

# Biological target: T2, human CLDN9
# Experiment: HEK293E cell binding; avid
row,EC50 [µg/mL],Binder
1,11.6,B1
2,11.1,B2
3,7.06,B3
4,43.8,B4
5,124,B5
6,66.1,B6
7,31.7,B7
8,44.1,B8
9,24.5,B9

# Biological target: T1, human CLDN6
# Experiment: HEK293E cell binding; avid
# Remark: another data set of the same source
row,EC50 [µg/mL],Binder
1,1.24,B1
2,1.63,B2
3,1.56,B3

# Biological target: T2, human CLDN9
# Experiment: HEK293E cell binding; avid
# Remark: another data set of the same source
row,EC50 [µg/mL],Binder
1,54.2,B1
2,43.8,B2
3,44.6,B3

# Biological target: T3, CLDN6 I143V isotype
# Experiment: flow cytometry, HEK293E cells
row,EC50 [µg/mL],Binder
1,0.329,B10
2,5.58,B11

# Biological target: T1, human CLDN6
# Experiment: flow cytometry, HEK293E cells
row,EC50 [µg/mL],Binder
1,0.359,B10
2,6.49,B11

# Biological target: T2, human CLDN9
# Experiment: flow cytometry, HEK293E cells
row,EC50 [µg/mL],Binder
1,6.73,B10
2,78.8,B11

# Biological target: T1, human CLDN6
# Experiment: flow cytometry, HEK293E cells
# Remark: another data set of the same source
row,EC50 [µg/mL],Binder
1,0.224,B10
2,3.48,B11

# Biological target: T4, mouse CLDN6
# Experiment: flow cytometry, HEK293E cells
row,EC50 [µg/mL],Binder
1,0.664,B10
2,12,B11

# Biological target: T5, cyno CLDN6
# Experiment: flow cytometry, HEK293E cells
row,EC50 [µg/mL],Binder
1,0.316,B10
2,5.65,B11
